Test results taken from patent US20230357429A1 (JANUX THERAPEUTICS, published 2023).
Read-outs that look alike come from different tables or passages of the source. Where no end group is shown, it is not given here.

Assays:
[1] = biological target: T1, Human TROP2 ECD (31-274 AA), biotinylated (human, UniProt P09758 31-274, biotinylated (site not stated)); test: ELISA, Fab on captured biotin-TROP2
T1 construct: captured on neutravidin plates; also called TROP2-biotin; Trop2-biotin
T1 sequence: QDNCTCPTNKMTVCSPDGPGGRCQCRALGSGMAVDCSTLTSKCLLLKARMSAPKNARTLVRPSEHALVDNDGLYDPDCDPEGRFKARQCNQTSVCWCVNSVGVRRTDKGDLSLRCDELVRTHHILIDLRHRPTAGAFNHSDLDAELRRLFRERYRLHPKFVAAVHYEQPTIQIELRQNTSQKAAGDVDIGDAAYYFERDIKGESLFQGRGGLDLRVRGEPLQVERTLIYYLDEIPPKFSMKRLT

Peptide-48 = biological target: T2, Peptide-48 (cysteine pairing not given here; also: biotinylated, site not given here); test: ELISA, Fab on captured biotin-peptide
T2 peptide: VDFCYMYKWPVCYP

Peptide-45 = biological target: T3, Peptide-45 (cysteine pairing not given here; also: biotinylated, site not given here); test: ELISA, Fab on captured biotin-peptide
T3 peptide: VDFCYQYGWPICSRVD

Peptide-47 = biological target: T4, Peptide-47 (cysteine pairing not given here; also: biotinylated, site not given here); test: ELISA, Fab on captured biotin-peptide
T4 peptide: VDFCYQYGWPICSRLY

Peptide-53 = biological target: T5, Peptide-53 (cysteine pairing not given here; also: biotinylated, site not given here); test: ELISA, Fab on captured biotin-peptide
T5 peptide: IDFCRVYDWPVCSL

Peptide-8 [2] = biological target: T6, Peptide-8 (cysteine pairing not given here; also: biotinylated, site not given here); test: ELISA, Fab on captured biotin-peptide
T6 peptide: VDFCGLYHWPICYQ

Peptide-54 = biological target: T7, Peptide-54 (cysteine pairing not given here; also: biotinylated, site not given here); test: ELISA, Fab on captured biotin-peptide
T7 peptide: VDFCYRYSWPVCWA

Peptide-56 = biological target: T8, Peptide-56 (cysteine pairing not given here; also: biotinylated, site not given here); test: ELISA, Fab on captured biotin-peptide
T8 peptide: VDFCYQYGWPICSRV

Peptide-59 = biological target: T9, Peptide-59 (cysteine pairing not given here; also: biotinylated, site not given here); test: ELISA, Fab on captured biotin-peptide
T9 peptide: VDFCALYNWPVCAI

Peptide-49 = biological target: T10, Peptide-49 (cysteine pairing not given here; also: biotinylated, site not given here); test: ELISA, Fab on captured biotin-peptide
T10 peptide: IDFCLLYKWPVCEL

Peptide-61 = biological target: T11, Peptide-61 (cysteine pairing not given here; also: biotinylated, site not given here); test: ELISA, Fab on captured biotin-peptide
T11 peptide: VDFCALYHWPVCGL

Peptide-3 = biological target: T12, Peptide-3 (cysteine pairing not given here; also: biotinylated, site not given here); test: ELISA, Fab on captured biotin-peptide
T12 peptide: IDFCMLYNWPICAG

Peptide-51 = biological target: T13, Peptide-51 (cysteine pairing not given here; also: biotinylated, site not given here); test: ELISA, Fab on captured biotin-peptide
T13 peptide: VDFCGLYHWPICYQV

Peptide-43 = biological target: T14, Peptide-43 (cysteine pairing not given here; also: biotinylated, site not given here); test: ELISA, Fab on captured biotin-peptide
T14 peptide: VDFCALYHWPICYQ

Peptide-50 = biological target: T15, Peptide-50 (cysteine pairing not given here; also: biotinylated, site not given here); test: ELISA, Fab on captured biotin-peptide
T15 peptide: VDFCAIYSWPICKI

Peptide-57 = biological target: T16, Peptide-57 (cysteine pairing not given here; also: biotinylated, site not given here); test: ELISA, Fab on captured biotin-peptide
T16 peptide: IDFCYRYGWPVCQT

Peptide-60 = biological target: T17, Peptide-60 (cysteine pairing not given here; also: biotinylated, site not given here); test: ELISA, Fab on captured biotin-peptide
T17 peptide: VDFCNLYHWPICAI

Peptide-55 = biological target: T18, Peptide-55 (cysteine pairing not given here; also: biotinylated, site not given here); test: ELISA, Fab on captured biotin-peptide
T18 peptide: VDFCYKYNWPICSR

Peptide-4 = biological target: T19, Peptide-4 (cysteine pairing not given here; also: biotinylated, site not given here); test: ELISA, Fab on captured biotin-peptide
T19 peptide: VDFCKIYAWPICGS

Peptide-8 [3] = biological target: T6, Peptide-8; test: ELISA, Fab on captured biotin-peptide
Method: Binding was measured in a standard ELISA format. […] Bound TBDs were detected using a standard horse radish peroxidase conjugate secondary antibody. The ELISA signal was plotted versus the log-scale concentration of TBD. The concentrations of TBD required to observe half maximal binding signal (EC₅₀s) were calculated using Graphpad Prism software.

Peptide-12 = biological target: T20, Peptide-12 (cysteine pairing not given here; also: biotinylated (site not given here)); test: ELISA, Fab on captured biotin-peptide
T20 peptide: PDFCAVYRWPICYQ

Peptide-28 = biological target: T21, Peptide-28 (cysteine pairing not given here; also: biotinylated, site not given here); test: ELISA, Fab on captured biotin-peptide
T21 peptide: NYLLCVKNLYCWIV

Peptide-6 = biological target: T22, Peptide-6 (cysteine pairing not given here; also: biotinylated, site not given here); test: ELISA, Fab on captured biotin-peptide
T22 peptide: IDFCLIYNWPVCDT

Peptide-25 = biological target: T23, Peptide-25 (cysteine pairing not given here; also: biotinylated (site not given here)); test: ELISA, Fab on captured biotin-peptide
T23 peptide: VDFCKIYSWPVCHQ

Peptide-5 = biological target: T24, Peptide-5 (cysteine pairing not given here; also: biotinylated, site not given here); test: ELISA, Fab on captured biotin-peptide
T24 peptide: VDFCKLYNWPVCQT

Peptide-31 = biological target: T25, Peptide-31 (cysteine pairing not given here; also: biotinylated, site not given here); test: ELISA, Fab on captured biotin-peptide
T25 peptide: YSLVCVKNLYCWNL

Peptide-17 = biological target: T26, Peptide-17 (cysteine pairing not given here; also: biotinylated (site not given here)); test: ELISA, Fab on captured biotin-peptide
T26 peptide: IDFCLLYDWPICGR

Peptide-1 = biological target: T27, Peptide-1 (cysteine pairing not given here; also: biotinylated (site not given here)); test: ELISA, Fab on captured biotin-peptide
T27 peptide: IDFCAMYQWPICDT

Peptide-20 = biological target: T28, Peptide-20 (cysteine pairing not given here; also: biotinylated (site not given here)); test: ELISA, Fab on captured biotin-peptide
T28 peptide: VDFCSFYRWPICET

B1: TBD-6 (LC I93A) (Fab, V domains shown)
VH: QVQLQQSGSELKKPGASVKVSCKASGYTFTNYGMNWVKQAPGQGLKWMGWINTYTGEPTYTDDFKGRFAFSLDTSVSTAYLQISSLKADDTAVYFCARGGFGSSYWYFDVWGQGSLVTVSS
VL: DIQLTQSPSSLSASVGDRVSITCKASQDVSIAVAWYQQKPGKAPKLLIYSASYRYTGVPDRFSGSGSGTDFTLTISSLQPEDFAVYYCQQHYATPLTFGAGTKVEIKR
notes: Fab; also called LC I93A mutant
Work on B1 yielded an EC50 [1] of 0.3 nM, an EC50 (Peptide-48) of 12.2 nM and an EC50 (Peptide-45) of 32.6 nM. For the same binder, the EC50 (Peptide-47) was 79.9 nM, the EC50 (Peptide-53) was 4.4 nM and the EC50 (Peptide-8 [2]) was 12.2 nM. It also gave an EC50 (Peptide-54) of 30 nM, an EC50 (Peptide-56) of 33.3 nM and an EC50 (Peptide-59) of 5.4 nM. For the same binder, the EC50 (Peptide-49) was 18.3 nM, the EC50 (Peptide-61) was 11.8 nM and the EC50 (Peptide-3) was 12.5 nM. The EC50 (Peptide-51) was 13.5 nM, the EC50 (Peptide-43) was 5.3 nM and the EC50 (Peptide-50) was 21.9 nM. The EC50 (Peptide-57) was 9.2 nM, the EC50 (Peptide-60) was 7.7 nM and the EC50 (Peptide-55) was 6.1 nM. It also gave an EC50 (Peptide-4) of 15.3 nM, an EC50 (Peptide-8 [3]) of 18.8 nM and an EC50 (Peptide-12) of 18.2 nM. It also gave an EC50 (Peptide-28) of 681 nM, an EC50 (Peptide-6) of 15 nM and an EC50 (Peptide-25) of 38.3 nM. It also gave an EC50 (Peptide-5) of 9.9 nM, an EC50 (Peptide-31) of 791 nM and an EC50 (Peptide-17) of 16.5 nM. It also gave an EC50 (Peptide-1) of 14.8 nM and an EC50 (Peptide-20) of 140 nM.
